Data as given in patent US20240066131A1 (Protagonist Therapeutics, Inc., priority 2020, published 2024).
Each block holds one binder with its values, some of them ahead of it. Starred links: 1 amine or outer side, 2 acyl side, 3 side chain; linkers in the order of their positions; H or OH if unused. Non-standard residues stand in square brackets, D forms with d. Groups on a side chain read outwards from the residue. *: point of attachment. Tet2 = (S)-2-amino-4-(1H-tetrazol-5-yl)butanoic acid, O=C([C@H](CCc1nn[nH]n1)N[*:1])[*:2]; Ala(1H-tetrazol-5-yl) = N[C@@H](Cc1nnn[nH]1)C(=O)O; C18 diacid = O=C(O)CCCCCCCCCCCCCCCCC(=O)*; Dip = N[C@H](C(=O)O)C(c1ccccc1)c1ccccc1; His(τ-Me) = Cn1cnc(C[C@H](N)C(=O)O)c1; Palmitoyl = CCCCCCCCCCCCCCCC(=O)*; β3hF = N[C@H](CC(=O)O)Cc1ccccc1; His(1-Me) = 1-methylhistidine; Isovaleryl = CC(C)CC(=O)*; AEEA = NCCOCCOCC(=O)O; Ahx = NCCCCCC(=O)O

Molecular target: T1, human ferroportin (SLC40A1) fused in frame with GFP, stably expressed in HEK293 cells (human, UniProt Q9NP59 1-571)
T1 sequence (looked up): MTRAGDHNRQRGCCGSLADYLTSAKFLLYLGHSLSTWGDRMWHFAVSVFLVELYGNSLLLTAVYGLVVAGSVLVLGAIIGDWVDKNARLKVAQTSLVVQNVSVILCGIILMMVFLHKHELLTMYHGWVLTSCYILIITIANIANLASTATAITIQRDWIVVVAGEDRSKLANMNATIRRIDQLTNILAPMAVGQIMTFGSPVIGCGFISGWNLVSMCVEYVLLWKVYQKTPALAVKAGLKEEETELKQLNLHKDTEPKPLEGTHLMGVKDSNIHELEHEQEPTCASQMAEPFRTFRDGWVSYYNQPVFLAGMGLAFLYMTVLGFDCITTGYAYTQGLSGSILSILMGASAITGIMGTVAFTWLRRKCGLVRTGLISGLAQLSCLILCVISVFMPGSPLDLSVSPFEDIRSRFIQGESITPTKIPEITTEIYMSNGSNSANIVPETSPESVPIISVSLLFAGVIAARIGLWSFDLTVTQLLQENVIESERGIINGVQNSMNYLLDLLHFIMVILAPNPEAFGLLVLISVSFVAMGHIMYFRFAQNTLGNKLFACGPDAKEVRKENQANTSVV
Experiment: cell-based or functional assay

FPN EC50: 325 nM
B1: Isovaleric Acid-E-T-H-[Dpa]-P-A-I-[Lys(1Peg2_1Peg2_Ahx_C18_Diacid-[(D)Lys]-[bhPhe]-[(D)Lys]-A-NH2 (peptide)
peptide: Isovaleryl-ETH[Dip]PAIK([AEEA-AEEA-Ahx-C18 diacid])[dK][β3hF][dK]A-NH2
SMILES: CC[C@H](C)[C@H](NC(=O)[C@H](C)NC(=O)[C@@H]1CCCN1C(=O)[C@@H](NC(=O)[C@H](Cc1c[nH]cn1)NC(=O)[C@@H](NC(=O)[C@H](CCC(=O)O)NC(=O)CC(C)C)[C@@H](C)O)C(c1ccccc1)c1ccccc1)C(=O)N[C@@H](CCCCNC(=O)COCCOCCNC(=O)COCCOCCNC(=O)CCCCCNC(=O)CCCCCCCCCCCCCCCCC(=O)O)C(=O)N[C@H](CCCCN)C(=O)N[C@H](CC(=O)N[C@H](CCCCN)C(=O)N[C@@H](C)C(N)=O)Cc1ccccc1

FPN EC50: > 3000 nM
B2: Isovaleric Acid-[Tet2]-T-[(1-Me)His]-[Dpa]-P-A-I-[Lys(Ac)]-[bhPhe]-[(D)Lys]-NH2 (peptide)
peptide: Isovaleryl-[Tet2]T[His(τ-Me)][Dip]PAIK(Ac)[β3hF][dK]-NH2
SMILES: CC[C@H](C)[C@H](NC(=O)[C@H](C)NC(=O)[C@@H]1CCCN1C(=O)[C@@H](NC(=O)[C@H](Cc1cn(C)cn1)NC(=O)[C@@H](NC(=O)[C@H](CCc1nn[nH]n1)NC(=O)CC(C)C)[C@@H](C)O)C(c1ccccc1)c1ccccc1)C(=O)N[C@@H](CCCCNC(C)=O)C(=O)N[C@H](CC(=O)N[C@H](CCCCN)C(N)=O)Cc1ccccc1

FPN EC50: 18.9 nM
B3: Isovaleric Acid-[Tet1]-T-H-[Dpa]-P-A-I-[Lys(Ac)]-[bhPhe]-[(D)Lys]-A-NH2 (peptide)
peptide: Isovaleryl-[Ala(1H-tetrazol-5-yl)]TH[Dip]PAIK(Ac)[β3hF][dK]A-NH2
SMILES: CC[C@H](C)[C@H](NC(=O)[C@H](C)NC(=O)[C@@H]1CCCN1C(=O)[C@@H](NC(=O)[C@H](Cc1c[nH]cn1)NC(=O)[C@@H](NC(=O)[C@H](Cc1nnn[nH]1)NC(=O)CC(C)C)[C@@H](C)O)C(c1ccccc1)c1ccccc1)C(=O)N[C@@H](CCCCNC(C)=O)C(=O)N[C@H](CC(=O)N[C@H](CCCCN)C(=O)N[C@@H](C)C(N)=O)Cc1ccccc1

FPN EC50: > 3000 nM
B4: Isovaleric Acid-E-T-[(1-Me)His]-[Dpa]-P-A-I-[Lys(Ac)]-[bhPhe]-[(D)Lys]-A-NH2 (peptide)
peptide: Isovaleryl-ET[His(1-Me)][Dip]PAIK(Ac)[β3hF][dK]A-NH2

FPN EC50: > 3000 nM
B5: Isovaleric Acid-[Tet1]-T-[(1-Me)His]-[Dpa]-P-A-I-[Lys(Ac)]-[bhPhe]-[(D)Lys]-A-NH2 (peptide)
peptide: Isovaleryl-[Ala(1H-tetrazol-5-yl)]T[His(τ-Me)][Dip]PAIK(Ac)[β3hF][dK]A-NH2
SMILES: CC[C@H](C)[C@H](NC(=O)[C@H](C)NC(=O)[C@@H]1CCCN1C(=O)[C@@H](NC(=O)[C@H](Cc1cn(C)cn1)NC(=O)[C@@H](NC(=O)[C@H](Cc1nnn[nH]1)NC(=O)CC(C)C)[C@@H](C)O)C(c1ccccc1)c1ccccc1)C(=O)N[C@@H](CCCCNC(C)=O)C(=O)N[C@H](CC(=O)N[C@H](CCCCN)C(=O)N[C@@H](C)C(N)=O)Cc1ccccc1

FPN EC50: 915 nM
B6: Isovaleric Acid-E-T-H-[Dpa]-P-A-I-[bhPhe]-[(D)Lys]-A-NH2 (peptide)
peptide: Isovaleryl-ETH[Dip]PAI[β3hF][dK]A-NH2
SMILES: CC[C@H](C)[C@H](NC(=O)[C@H](C)NC(=O)[C@@H]1CCCN1C(=O)[C@@H](NC(=O)[C@H](Cc1c[nH]cn1)NC(=O)[C@@H](NC(=O)[C@H](CCC(=O)O)NC(=O)CC(C)C)[C@@H](C)O)C(c1ccccc1)c1ccccc1)C(=O)N[C@H](CC(=O)N[C@H](CCCCN)C(=O)N[C@@H](C)C(N)=O)Cc1ccccc1

FPN EC50: 356 nM
B7: Isovaleric Acid-E-T-A-[Dpa]-P-A-I-[(D)Lys]-[bhPhe]-[Lys(Ahx_Palm)]-[(D)Lys]-A-NH2 (peptide)
peptide: Isovaleryl-ETA[Dip]PAI[dK][β3hF]K([Ahx-Palmitoyl])[dK]A-NH2
SMILES: CCCCCCCCCCCCCCCC(=O)NCCCCCC(=O)NCCCC[C@H](NC(=O)C[C@H](Cc1ccccc1)NC(=O)[C@@H](CCCCN)NC(=O)[C@@H](NC(=O)[C@H](C)NC(=O)[C@@H]1CCCN1C(=O)[C@@H](NC(=O)[C@H](C)NC(=O)[C@@H](NC(=O)[C@H](CCC(=O)O)NC(=O)CC(C)C)[C@@H](C)O)C(c1ccccc1)c1ccccc1)[C@@H](C)CC)C(=O)N[C@H](CCCCN)C(=O)N[C@@H](C)C(N)=O

FPN EC50: 50.6 nM
B8: Isovaleric Acid-E-T-H-[Dpa]-P-A-I-[(D)Lys]-A-[Lys(Ahx_Palm)]-[(D)Lys]-A-NH2 (peptide)
peptide: Isovaleryl-ETH[Dip]PAI[dK]AK([Ahx-Palmitoyl])[dK]A-NH2
SMILES: CCCCCCCCCCCCCCCC(=O)NCCCCCC(=O)NCCCC[C@H](NC(=O)[C@H](C)NC(=O)[C@@H](CCCCN)NC(=O)[C@@H](NC(=O)[C@H](C)NC(=O)[C@@H]1CCCN1C(=O)[C@@H](NC(=O)[C@H](Cc1c[nH]cn1)NC(=O)[C@@H](NC(=O)[C@H](CCC(=O)O)NC(=O)CC(C)C)[C@@H](C)O)C(c1ccccc1)c1ccccc1)[C@@H](C)CC)C(=O)N[C@H](CCCCN)C(=O)N[C@@H](C)C(N)=O

FPN EC50: 492 nM
B9: Isovaleric Acid-E-A-H-[Dpa]-P-A-I-[(D)Lys]-[bhPhe]-[Lys(Ahx_Palm)]-[(D)Lys]-A-NH2 (peptide)
peptide: Isovaleryl-EAH[Dip]PAI[dK][β3hF]K([Ahx-Palmitoyl])[dK]A-NH2
SMILES: CCCCCCCCCCCCCCCC(=O)NCCCCCC(=O)NCCCC[C@H](NC(=O)C[C@H](Cc1ccccc1)NC(=O)[C@@H](CCCCN)NC(=O)[C@@H](NC(=O)[C@H](C)NC(=O)[C@@H]1CCCN1C(=O)[C@@H](NC(=O)[C@H](Cc1c[nH]cn1)NC(=O)[C@H](C)NC(=O)[C@H](CCC(=O)O)NC(=O)CC(C)C)C(c1ccccc1)c1ccccc1)[C@@H](C)CC)C(=O)N[C@H](CCCCN)C(=O)N[C@@H](C)C(N)=O

FPN EC50: 40.6 nM
B10: Isovaleric Acid-A-T-H-[Dpa]-P-A-I-[(D)Lys]-[bhPhe]-[Lys(Ahx_Palm)]-NH2 (peptide)
peptide: Isovaleryl-ATH[Dip]PAI[dK][β3hF]K([Ahx-Palmitoyl])-NH2

FPN EC50: 682 nM
B11: Isovaleric Acid-E-T-H-[Dpa]-P-E-I-[(D)Lys]-[bhPhe]-[Lys(Ahx_Palm)]-NH2 (peptide)
peptide: Isovaleryl-ETH[Dip]PEI[dK][β3hF]K([Ahx-Palmitoyl])-NH2
SMILES: CCCCCCCCCCCCCCCC(=O)NCCCCCC(=O)NCCCC[C@H](NC(=O)C[C@H](Cc1ccccc1)NC(=O)[C@@H](CCCCN)NC(=O)[C@@H](NC(=O)[C@H](CCC(=O)O)NC(=O)[C@@H]1CCCN1C(=O)[C@@H](NC(=O)[C@H](Cc1c[nH]cn1)NC(=O)[C@@H](NC(=O)[C@H](CCC(=O)O)NC(=O)CC(C)C)[C@@H](C)O)C(c1ccccc1)c1ccccc1)[C@@H](C)CC)C(N)=O

FPN EC50: > 3000 nM
B12: Isovaleric Acid-[Tet2]-T-[(1-Me)His]-[Dpa]-P-A-I-[Lys(Ac)]-[bhPhe]-[(D)Lys]-A-NH2 (peptide)
peptide: Isovaleryl-[Tet2]T[His(τ-Me)][Dip]PAIK(Ac)[β3hF][dK]A-NH2

FPN EC50: 91.9 nM
B13: Isovaleric Acid-E-T-H-[Dpa]-P-[Lys(Ahx_Palm)]-I-[(D)Lys]-[bhPhe]-[Lys(Ac)]-NH2 (peptide)
peptide: Isovaleryl-ETH[Dip]PK([Ahx-Palmitoyl])I[dK][β3hF]K(Ac)-NH2
SMILES: CCCCCCCCCCCCCCCC(=O)NCCCCCC(=O)NCCCC[C@H](NC(=O)[C@@H]1CCCN1C(=O)[C@@H](NC(=O)[C@H](Cc1c[nH]cn1)NC(=O)[C@@H](NC(=O)[C@H](CCC(=O)O)NC(=O)CC(C)C)[C@@H](C)O)C(c1ccccc1)c1ccccc1)C(=O)N[C@H](C(=O)N[C@H](CCCCN)C(=O)N[C@H](CC(=O)N[C@@H](CCCCNC(C)=O)C(N)=O)Cc1ccccc1)[C@@H](C)CC

FPN EC50: 532 nM
B14: Isovaleric Acid-E-T-H-[Dpa]-P-[(D)Lys]-I-[(D)Lys]-[bhPhe]-[Lys(Ahx_Palm)]-NH2 (peptide)
peptide: Isovaleryl-ETH[Dip]P[dK]I[dK][β3hF]K([Ahx-Palmitoyl])-NH2
SMILES: CCCCCCCCCCCCCCCC(=O)NCCCCCC(=O)NCCCC[C@H](NC(=O)C[C@H](Cc1ccccc1)NC(=O)[C@@H](CCCCN)NC(=O)[C@@H](NC(=O)[C@@H](CCCCN)NC(=O)[C@@H]1CCCN1C(=O)[C@@H](NC(=O)[C@H](Cc1c[nH]cn1)NC(=O)[C@@H](NC(=O)[C@H](CCC(=O)O)NC(=O)CC(C)C)[C@@H](C)O)C(c1ccccc1)c1ccccc1)[C@@H](C)CC)C(N)=O

FPN EC50: 117 nM
B15: Isovaleric Acid-[Tet2]-T-H-[Dpa]-P-A-I-[Lys(Ac)]-[bhPhe]-[(D)Lys]-A-NH2 (peptide)
peptide: Isovaleryl-[Tet2]TH[Dip]PAIK(Ac)[β3hF][dK]A-NH2
SMILES: CC[C@H](C)[C@H](NC(=O)[C@H](C)NC(=O)[C@@H]1CCCN1C(=O)[C@@H](NC(=O)[C@H](Cc1c[nH]cn1)NC(=O)[C@@H](NC(=O)[C@H](CCc1nn[nH]n1)NC(=O)CC(C)C)[C@@H](C)O)C(c1ccccc1)c1ccccc1)C(=O)N[C@@H](CCCCNC(C)=O)C(=O)N[C@H](CC(=O)N[C@H](CCCCN)C(=O)N[C@@H](C)C(N)=O)Cc1ccccc1

FPN EC50: 46.3 nM
B16: Isovaleric Acid-E-T-H-[Dpa]-P-S-I-[(D)Lys]-[bhPhe]-[Lys(Ahx_Palm)]-NH2 (peptide)
peptide: Isovaleryl-ETH[Dip]PSI[dK][β3hF]K([Ahx-Palmitoyl])-NH2
SMILES: CCCCCCCCCCCCCCCC(=O)NCCCCCC(=O)NCCCC[C@H](NC(=O)C[C@H](Cc1ccccc1)NC(=O)[C@@H](CCCCN)NC(=O)[C@@H](NC(=O)[C@H](CO)NC(=O)[C@@H]1CCCN1C(=O)[C@@H](NC(=O)[C@H](Cc1c[nH]cn1)NC(=O)[C@@H](NC(=O)[C@H](CCC(=O)O)NC(=O)CC(C)C)[C@@H](C)O)C(c1ccccc1)c1ccccc1)[C@@H](C)CC)C(N)=O

FPN EC50: 24.1 nM
B17: Isovaleric Acid-E-T-H-[Dpa]-P-F-I-[(D)Lys]-[bhPhe]-[Lys(Ahx_Palm)]-NH2 (peptide)
peptide: Isovaleryl-ETH[Dip]PFI[dK][β3hF]K([Ahx-Palmitoyl])-NH2
SMILES: CCCCCCCCCCCCCCCC(=O)NCCCCCC(=O)NCCCC[C@H](NC(=O)C[C@H](Cc1ccccc1)NC(=O)[C@@H](CCCCN)NC(=O)[C@@H](NC(=O)[C@H](Cc1ccccc1)NC(=O)[C@@H]1CCCN1C(=O)[C@@H](NC(=O)[C@H](Cc1c[nH]cn1)NC(=O)[C@@H](NC(=O)[C@H](CCC(=O)O)NC(=O)CC(C)C)[C@@H](C)O)C(c1ccccc1)c1ccccc1)[C@@H](C)CC)C(N)=O
